Laboratory results published in US20210017281A1 (IMMUNEXT, published 2021).
Changes are numbered by the printed parent chain. One block for each binder: values may come before it.

Target: T1, human VISTA (human, UniProt Q9H7M9 33-194, limits assumed)
T1 construct: The ELISA text says only recombinant VISTA; also called recombinant VISTA
Assay: method not stated (Table 1, column Kd, M)

B1: VSTB51 (antibody, V domains shown)
VH: EVQLVESGGGLVQPGGSLRLSCAASGFTFSSYTMSWVRQAPGKGLEWVATISNSGSYTYYLDSVKGRFTISRDNAKNSLYLQMNSLRAEDTAVYYCARDTVLSPFDYWGQGTTVTVSS
VL: EIVLTQSPDFQSVTPKEKVTITCSATSSISYMHWYQQKPDQSPKLLIKDTSELASGVPSRFSGSGSGTDFTLTINSLEAEDAATYYCHQRSSFTFGQGTKLEIKR
Kd: 0.104 nM

B2: INX919 | VSTB115 (antibody, V domains shown)
VH: QVQLVQSGAEVKKPGSSVKVSCKASGGTFSSYAISWVRQAPGQGLEWMGGIIPIFGTANYAQKFQGRVTITADESTSTAYMELSSLRSEDTAVYYCARSSYGWSYEFDYWGQGTLVTVSS
VL: DIQMTQSPSSLSASVGDRVTITCRASQSIRTYLNWYQQKPGKAPKLLIYAASSLQSGVPSRFSGSGSGTDFTLTISSLQPEDFATYYCQQAYSNPITFGQGTKVEIKR
Kd: 0.145 nM

B4: INX916 | VSTB107 (antibody, V domains shown)
VH: B2 VH
VL: B2 VL with R30N, T31N, Y32D, A91N, Y92R, S93A, N94T
Kd: 0.089 nM

B5: VSTB105 (antibody, V domains shown)
VH: B2 VH
VL: B2 VL with R30A, Y32N, A91N, Y92D, S93D, N94R
Kd: 0.115 nM

B6: VSTB111 (antibody, V domains shown)
VH: B2 VH
VL: B2 VL with R30N, Y32D, A91N, Y92R, S93G, N94S
Kd: 0.171 nM

B7: VSTB116 (antibody, V domains shown)
VH: B2 VH
VL: B2 VL with R30N, Y32N, Y92R, S93D, N94T
Kd: 0.213 nM

B8: INX918 | VSTB113 (antibody, V domains shown)
VH: B2 VH with S99H, Y101I, S104V, Y105A, F107L
VL: B2 VL with R30A, Y32D, Y92H, S93W, N94Y, I96L
Kd: 0.0433 nM

B9: INX917 | VSTB110 (antibody, V domains shown)
VH: B2 VH with S99H, Y101I, S104V, Y105A, F107L
VL: B2 VL with R30N, Y32D, A91G, Y92A, N94D
Kd: 0.202 nM

B11: INX915 | VSTB106 (antibody, V domains shown)
VH: B2 VH
VL: B2 VL with Y32D, A50S, A91N, Y92E, S93R, N94T
Kd: 0.167 nM

B12: VSTB108 (antibody, V domains shown)
VH: B2 VH with S99N, S100T, Y101F, Y105G, F107L
VL: B2 VL with R30S, T31N, Y32R, A50S, A91N, Y92H, S93D
Kd: 0.494 nM

B14: INX913 | VSTB85 (antibody, V domains shown)
VH: QVQLVQSGAEVKKPGASVKVSCKASGYTFTDYAMHWVRQAPGQGLEWMGVIDTYYGNTNYNQKFKGRVTMTRDTSISTAYMELSRLRSDDTAVYYCARGGGDALDYWGQGTTVTVSS
VL: DIQMTQSPSSLSASVGDRVTITCKASQSVSNDVVWYQQKPGKAPKLLIYYASNRYIGVPSRFSGSGSGTDFTFTISSLQPEDIATYYCQQGYTSLRTFGQGTKLEIKR
Kd: 0.0378 nM

B16: INX911 | VSTB76 (antibody, V domains shown)
VH: QVQLVQSGAEVKKPGASVKVSCKASGYTFTDYWINWVRQAPGQGLEWMGNIYPSHSYTNYNQEFKDRVTMTRDTSTSTVYMELSSLRSEDTAVYYCARGGYRYPYYAMDYWGQGTTVTVSS
VL: AIQLTQSPSSLSASVGDRVTITCGASENIYGALNWYQQKPGKAPKLLIYGATNLADGVPSRFSGSGSGTDFTLTISSLQPEDFATYYCQNVLSTPYTFGQGTKLEIKR
Kd: 1.31 nM

B19: VSTB65 (antibody, V domains shown)
VH: QVQLVQSGAEVKKPGASVKVSCKASGYTFTSYWIHWVRQAPGQGLEWMGEINPSNGLTNYNEKFRNRVTMTRDTSTSTVYMELSSLRSEDTAVYYCARSYDYDGDYYAMDYWGQGTLVTVSS
VL: DIVMTQSPLSLPVTPGEPASISCRSTQSIVHSNGNTYLEWYLQKPGQSPQLLIYKVSNRFSGVPDRFSGSGSGTDFTLKISRVEAEDVGVYYCFQASHVPWTFGQGTKLEIKR
Kd: 1.08 nM

B21: VSTB81 (antibody, V domains shown)
VH: QVTLKESGPALVKPTQTLTLTCTFSGFSLSTSGMGVSWIRQPPGKALEWLAHIYWDDDKRYNPSLKSRLTISKDTSKNQVVLTMTNMDPVDTATYYCARRPDYFGSSYVDWGQGTTVTVSS
VL: DIVMTQTPLSLSVTPGQPASISCRASESVDTYGNSFMHWYLQKPGQPPQLLIYLASNLDFGVPDRFSGSGSGTDFTLKISRVEAEDVGVYYCQQNNEDPWTFGQGTKLEIKR
Kd: 0.312 nM

B23: INX904 | VSTB103 (antibody, V domains shown)
VH: EVQLVQSGAEVKKPGESLKISCKGSGYSFTSYWIGWVRQMPGKGLEWMGIIYPGDSDTRYSPSFQGQVTISADKSISTAYLQWSSLKASDTAMYYCARDDALYGGYYLDYWGQGTLVTVSS
VL: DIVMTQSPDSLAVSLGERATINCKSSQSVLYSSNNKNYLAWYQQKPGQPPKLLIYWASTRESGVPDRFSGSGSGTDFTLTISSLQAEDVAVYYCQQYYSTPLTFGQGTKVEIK
notes: INX name = the VSTB variable regions with human IgG2 constant regions
Kd: 0.636 nM

B25: VSTB104 (antibody, V domains shown)
VH: EVQLVQSGAEVKKPGESLKISCKGSGYSFTSYWIGWVRQMPGKGLEWMGIIYPGDSDTRYSPSFQGQVTISADKSISTAYLQWSSLKASDTAMYYCARDANSFYSAASIFDYWGQGTLVTVSS
VL: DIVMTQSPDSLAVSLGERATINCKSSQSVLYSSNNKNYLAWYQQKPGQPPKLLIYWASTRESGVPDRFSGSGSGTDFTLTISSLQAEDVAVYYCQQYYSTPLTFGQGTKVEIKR
Kd: 0.675 nM

B27: INX905 | VSTB53 (antibody, V domains shown)
VH: QVQLVQSGAEVKKPGASVKVSCKASGYTFTHYTIHWVRQAPGQGLEWMGYIIPSSGYSEYNQKFKDRVTMTRDTSTSTVYMELSSLRSEDTAVYYCARGAYDDYYDYYAMDYWGQGTLVTVSS
VL: DIVMTQSPLSLPVTPGEPASISCRSSQTIVHSNGNTYLEWYLQKPGQSPQLLIYKVSNRFSGVPDRFSGSGSGTDFTLKISRVEAEDVGVYYCFQASHVPWTFGQGTKLEIK
notes: as for B23
Kd: 0.0264 nM

B28: INX908 | VSTB92 (antibody, V domains shown)
VH: QVQLVQSGAEVKKPGASVKVSCKASGYTFANYLIGWVRQAPGQRLEWMGDIYPGGGFISYNEKFKGRVTITRDTSASTAYMELSSLRSEDTAVYYCARRFDYGGYFFDYWGQGTLVTVSS
VL: B27 VL with T28S, T36I, A96G
notes: INX name = the VSTB variable regions with human IgG2 constant regions; also called INX908 parental
Kd: 0.0934 nM

Continued by falling Kd, values first:

Kd: 2.26 nM
B17: INX910 | VSTB73 (antibody, V domains shown)
VH: QVQLVQSGAEVKKPGASVKVSCKASGYTFTDYVISWVRQAPGQGLEWMGEIYPGSGNTYYYEKFKGRVTMTRDTSTSTVYMELSSLRSEDTAVYYCARVLVSVMDYWGQGTLVTVSS
VL: EIVLTQSPDFQSVTPKEKVTITCSASSSINYITWYQQKPDQSPKLLIKDTSKLASGVPSRFSGSGSGTDFTLTINSLEAEDAATYYCHQRSSYPWTFGQGTRLEIKR

Kd: 2.23 nM
B22: VSTB70 (antibody, V domains shown)
VH: EVQLVQSGAEVKKPGATVKISCKVSGYTFSNYWIEWVQQAPGKGLEWMGEILPGSGNVHYNEKFKGRVTITADTSTDTAYMELSSLRSEDTAVYYCATPPHYYGYDYYDVNYWGQGTLVTVSS
VL: DVVMTQSPLSLPVTLGQPASISCKSSQSLLDSDGKTYLNWFQQRPGQSPRRLIYLVSELDSGVPDRFSGSGSGTDFTLKISRVEAEDVGVYYCWQGTHFPQTFGQGTKLEIKR

Kd: 2.03 nM
B15: INX912 | VSTB84 (antibody, V domains shown)
VH: QVQLVQSGAEVKKPGASVKVSCKASGYTFTSYWMHWVRQAPGQGLEWMGYINPSTGYPGYNQKFKDRVTMTRDTSTSTVYMELSSLRSEDTAVYYCARSYYDYDGGAWFAYWGQGTTVTVSS
VL: DIVMTQTPLSLSVTPGQPASISCRASESVEYYGTSLMQWYLQKPGQPPQLLIYAASNVESGVPDRFSGSGSGTDFTLKISRVEAEDVGVYYCQQSRKVPSTFGQGTKLEIKR

Kd: 1.48 nM
B24: VSTB100 (antibody, V domains shown)
VH: B25 VH with A100V, N101S, S105G, A106Y, A107S, S108P, I109M
VL: EIVLTQSPATLSLSPGERATLSCRASQSVSSYLAWYQQKPGQAPRLLIYDASNRATGIPARFSGSGSGTDFTLTISSLEPEDFAVYYCQQRSNWPLTFGQGTKVEIKR

Kd: 0.507 nM
B13: VSTB49 (antibody, V domains shown)
VH: QVQLVQSGAEVKKPGASVKVSCKASGYTFPSHTIHWVRQAPGQRLEWMGSIYPFIDSTIYNQKFKDRVTITRDTSASTAYMELSSLRSEDTAVYYCARGIRGYTMDYWGQGTLVTVSS
VL: DVVMTQSPLSLPVTLGQPASISCRASESVDNYGLSFMNWFQQRPGQSPRRLIYGASNQGSGVPDRFSGSGSGTDFTLKISRVEAEDVGVYYCQQSKEVPYTFGQGTKLEIKR

Kd: 0.152 nM
B3: VSTB114 (antibody, V domains shown)
VH: B2 VH with S99H, Y101I, S104V, Y105A, F107L
VL: B2 VL with R30A, Y32S, A50Y, A91G, Y92A, S93Y, N94Y, I96L

Kd: 0.126 nM
B26: INX903 | VSTB95 (antibody, V domains shown)
VH: EVQLVESGGGLVQPGGSLRLSCAASGFTFRNYGMSWVRQAPGKGLEWVASIISGGSYTYYPDSVKGRFTISRDNAKNSLYLQMNSLRAEDTAVYYCARIYDHDGDYYAMDYWGQGTTVTVSS
VL: B27 VL with T28S, A96G
notes: INX903 = VSTB95 variable regions with wild-type human IgG2 constant regions

Kd: 0.106 nM
B20: VSTB59 (antibody, V domains shown)
VH: QVQLVQSGAEVKKPGASVKVSCKASGYTFTDYWMHWVRQAPGQGLEWMGAIETSLNYPSYNQKFKGRVTMTRDTSTSTVYMELSSLRSEDTAVYYCARWGIYGNPWFAYWGRGTLVTVSS
VL: B21 VL with T31S, G33V, M37V, L54R, D59E, F60S, N95S, W100Y

Kd: 0.102 nM
B10: VSTB109 (antibody, V domains shown)
VH: B2 VH
VL: B2 VL with R30A, A91N, Y92H, S93N, N94R

Kd: 0.0629 nM
B18: INX909 | VSTB67 (antibody, V domains shown)
VH: QVQLVQSGAEVKKPGASVKVSCKASDYIFSSYWIQWVRQAPGQGLEWMGEIFPGSGGTNYNEKFKGRVTMTRDTSTSTVYMELSSLRSEDTAVYYCARAIYYDYDMYYFDSWGQGTTVTVSS
VL: DIQMTQSPSSLSASVGDRVTITCRASQDISSYLNWYQQKPGKVPKLLIYYTSRLHSGVPSRFSGSGSGTDFTLTISSLQPEDVATYYCQHVNTLPWTFGQGTKLEIKR
